B1: KalbTG: Kutzneria albida microbial transglutaminase (protein)
chain: MHKWFLRAAVVAAVGFGLPTLIATTAQAAAVAAPTPRAPLAPPLAEDRSYRTWRVEDYVEAWERYHGREMTEDERENLARGCIGVTVVNLNREDLSNPPLNLSFGSLRTAEAVQAALNKIVDTHPSPAQYEAAVAKDPILKRLKNVVKALPSWIDSAKLKASIFSKRFYSWQNPDWSEERAHTTYRPDRETDQVDMSTYRYRARPGYVNFDYGWFDQDTNTWWHANHEEPRMVVYQSTLRHYSRPLQDFDEQVFTVAFAKKD
modifications: Hypothetical_transglutaminase
notes: Kutzneria albida microbial transglutaminase

Assays:
[1] = system: KalbTG and S. mobaraensis MTG; test: dual site-specific labeling with Cy3 and Cy5 labels; type: biochemical; settings: KalbTG + Cy3 label 30 min, then S. mobaraensis MTG + Cy5 label 15 min
Method: Turning to FIG. 6C, the high sequence specificity of KalbTG was used to conjugate a 6 kDa Cy3 label to the YRYRQ (SEQ ID NO:1) site of a 7 kDa substrate peptide comprising both the KalbTG and S. mobaraensis MTG glutamine-containing motifs. The reaction was run for 30 minutes to saturate the YRYRQ (SEQ ID NO:1) site. Analysis by SDS-PAGE confirmed that the label was integrated at a single site. The substrate peptide was subsequently incubated for 15 minutes with S. mobaraensis MTG and a 6 kDa Cy5 label. […] Accordingly, KalbTG may be useful for the industrial-scale synthesis of complex protein conjugates of interest in therapeutic or diagnostic applications.
For the orthogonal labeling experiment, a molecule containing both KalbTG and MTG Q-tags was chemically synthesized to have the primary chemical structure:
(§1) If not noted otherwise, labeling reactions were performed for 15 minutes at 37° C. in the presence of 72 μM substrate protein, 720 μM label peptide and 1 μM transglutaminase in 200 mM MOPS pH 7.2 and 1 mM EDTA. […] Samples were taken between incubation steps and analyzed by SDS-PAGE, in-gel fluorescence (BioRad ChemiDoc gel documentation system, Cy3 and Cy5 LED and filter sets). […] The mixture was filtered (0.2 μm spin filter) and analyzed by LC-MS with UV detection at 214 nm and 305 nm.

KalbTG = test: Cy3 labeling of Q-tagged SlyD/FKBP scaffold, SDS-PAGE; type: biochemical, Kutzneria albida; settings: 15 minute reaction, pH 6.2 to 9.0 tested
Source text: Next, the array and in-solution data were applied to perform site-specific labeling on protein substrates. The molecular chaperone SlyD is a useful scaffold for labeling approaches as epitope-containing loops can be grafted onto the FKBP domain for presentation to binders or enzymes (PCT App. Pub. No. WO 2012/150321 A1 to Andres et al.). A chimeric protein consisting of the Thermus thermophilus FKBP domain and the KalbTG recognition sequence RYRQR (SEQ ID NO:14) was produced. Labeling with a ten-fold excess of KalbTG K-tag-Cy3 and a substrate to enzyme ratio of 72:1 afforded approximately 70% yield of a labeled protein species after 15 minutes (FIG. 6A). This yield remained constant over a time-course of 60 minutes. […] The molecular weight shift from 13 kDa to 19 kDa was observed on the SDS-PAGE gel, corresponding exactly to the incorporation of a single 6 kDa label molecule. […]
as §1

[2] = system: Z-[GGGYRYRQGGGG (SEQ ID NO:75)]-OH; test: GLDH assay of transglutaminase enzyme activity after storage; type: biochemical; settings: as measured by GLDH assay
Method: A further experiment was performed to determine the activity of KalbTG enzymes prepared from two different constructs, and stored at two different temperatures. The KalbTGt3 (SEQ ID NO:10) and KalbTGt1 (SEQ ID NO: 12) enzymes tested were obtained respectively from the EcSlyD2-Xa-KalbTGt3-8×His-tag construct (SEQ ID NO:8) and the EcSlyD2-Xa-KalbTGt1-8×His-tag construct (SEQ ID NO:11) described in Example 3. The activity of the two KalbTG enzymes was tested after storage at either 4° C. or −20° C. and compared against the activity of commercially available S. mobaraensis MTG according to a published protocol (Oteng-Pabi, et al., 2013. Analytical biochemistry 441(2): 169-173). In particular, assays were performed at 37° C. in 200 μl total volume. The assay mixture included 200 mM MOPS, 1 mM EDTA, and 1 mM DTT at pH 7.4. Further, α-ketoglutarate and NADH were added at a concentration of 500 μM, along with 2 U/ml GLDH, and between 0.1 μg and 1.0 μg of one of the transglutaminase enzymes. The glutamine substrate was 200 μM Z-[[…] (SEQ ID NO:75)]-OH, and the amine donor was 10 mM cadaverine, where Z represents a carboxybenzyl group. All data were collected in triplicate (average of 3 wells in a microtiter plate) and baseline activity (buffer without enzyme) subtracted.

[3] = differential scanning calorimetry (DSC); type: physicochemical; settings: purified and activated enzyme
Method: Initial screening at the 5 ml scale provided clear evidence that proteins with the anticipated electrophoretic mobility of full length KalbTG fusions were expressed, and that a fusion with tandem SlyD chaperones (Scholz, et al. 2005. Journal of Molecular Biology 345(5): 1229-1241) yielded the highest amount of soluble protein among all the constructs tested (FIG. 3A). The expression of this construct was further optimized by screening different incubation times and temperatures, Isopropyl β-D-1-thiogalactopyranoside (IPTG) inducer concentrations and induction times, media types and volumes. With reference to FIGS. 3B and 3C, the modular nature of the chosen fusion construct afforded the SlyD fusion protein, the pro-enzyme, and the activated enzyme by a combination of sequential purification and proteolytic cleavage steps. The expression construct 200 included, starting from N-terminus, two sequential SlyD chaperones 202, a factor Xa protease cleavage site (C1), the KalbTG pro-peptide 204, a trypsin protease cleavage site (C2) the KalbTG enzyme 206, and an 8×-histidine tag 208. The SlyD chaperones 202 are cleaved from the expression construct 200 with a factor Xa protease 210. […] The melting point of the purified and activated enzyme was determined to be 48.9° C. using differential scanning calorimetry (DSC). […]

| Molecule | yield of dually labeled construct [1] | pH of highest labeling efficiency (KalbTG) | increase in KalbTG enzymatic activity by purification process with ammonium chloride [2] | melting point (DSC) [3] [°C] |
| --- | --- | --- | --- | --- |
| Z-[GGGYRYRQGGG (SEQ ID NO: 101)]-PEG27-[GIEGRG (SEQ ID NO: 102)]-PEG27-PEG27-[GGGDYALQGG (SEQ ID NO: 103)]-OH | nearly quantitative yield |  |  |  |
| B1 |  | 7.4 | up to 9 fold | 48.9 |
